According to patent publication US20160245821A1:

Columns and labels:
[1] = biological target: WD Repeat Containing Protein 5 (WDR5) (UniProt P61964); experiment: ITC
[2] = biological target: WD Repeat Containing Protein 5 (WDR5) (UniProt P61964); experiment: thermal shift
[3] = biological target: WD Repeat Containing Protein 5 (WDR5) (UniProt P61964); experiment: fluorescent polarization (FP) assay

Kd [1]: 1300 nM
ΔTm*(Thermal shift) [2]: 2 ° C.
Kd [3]: 1300 nM
Substance: Peptide Substrate (WIN peptide, pentapeptide fragment of the WDR5 binding partner MLL1 protein)
